Series [1] concerns Cc1cc2nc3c(=O)[nH]c(=O)nc-3n(C[C@H](O)[C@H](O)[C@H](O)COP(=O)(O)O)c2cc1C. The series can be described thus: purified protein. The format is biochemical, Homo sapiens. Conditions: 100 μM ATP, 5 mM MgCl2, 50 mM Tris-HCl pH 7.5, 37°C.
In series [2] the test system is Nc1ncnc2c1ncn2[C@@H]1O[C@H](COP(=O)(O)OP(=O)(O)OP(=O)(O)O)[C@@H](O)[C@H]1O. The series is described as follows: purified protein. To be noted: FMN co-substrate, MgCl2, Tris-HCl pH 7.5, 37°C.

What is called Km is the concentration of substrate that gives half-maximal velocity.

Take “6His-tagged human FADS isoform 2 (FADS2), WT (Homo sapiens)”: the Km in series [1] amounted to 0.32 ± 0.10 µM; in series [2] it was 8.10 ± 1.37 µM.
As to “6His-tagged human FADS isoform 2 (FADS2), WT (Homo sapiens; DEL495-495)”, the Michaelis-Menten constant (Km) in series [1] was found to be 0.98 ± 0.23 µM; in series [2], 8.02 ± 2.23 µM.
The matching figures for “6His-tagged human FADS isoform 2 (FADS2), WT (Homo sapiens; R530C)”: 0.39 ± 0.07 µM and 4.63 ± 1.00 µM.

The values are drawn from paper PMC4908180.
